Reference: article PMC5435986 (Nucleic Acids Research, 2017)

Columns and labels:
Experiment in all cases: ITC
[1] = molecular target: Y650A/A654Q/Y658V triple CBPKIX mutant (UniProt P45481 586-672, Y650A | A654Q | Y658V)
[2] = molecular target: F612A/D622A/R624A/K667E quadruple CBPKIX mutant (UniProt P45481 586-672, F612A | D622A | R624A | K667E)
[3] = molecular target: KIX domain of CREB-binding protein (CBP), residues 586–672 (UniProt P45481 586-672)
Sequence of KIX domain of CREB-binding protein (CBP), residues 586–672 (P45481 586-672): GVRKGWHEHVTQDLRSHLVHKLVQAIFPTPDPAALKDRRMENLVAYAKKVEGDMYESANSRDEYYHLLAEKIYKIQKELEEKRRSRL

Sequence of F612A/D622A/R624A/K667E quadruple CBPKIX mutant (P45481 586-672 F612A/D622A/R624A/K667E): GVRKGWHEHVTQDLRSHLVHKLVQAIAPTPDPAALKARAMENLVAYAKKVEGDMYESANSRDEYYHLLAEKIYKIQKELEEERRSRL
Sequence of Y650A/A654Q/Y658V triple CBPKIX mutant (P45481 586-672 Y650A/A654Q/Y658V): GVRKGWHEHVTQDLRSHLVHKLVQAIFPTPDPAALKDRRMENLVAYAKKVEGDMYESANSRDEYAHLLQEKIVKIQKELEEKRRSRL

Kd [1] [µM]	fold decrease in affinity against wild-type CBPKIX [2] [fold]	Kd [3] [µM]	fold decrease in affinity against wild-type p65TA1 [3] [fold]	Binder
–	–	–	~1.5	PGYPNGLLSGDEDFSSIADMDFSALASQISS (peptide, UniProt Q04206 521-551, looked up) [L546A mutant of p65TA1]
–	–	–	~1.5	PGYPNGLLSGDEDFSSIADMDFSAALSQISS (peptide, UniProt Q04206 521-551, looked up) [L545A mutant of p65TA1]

More lines, now with the values behind:

Binder	Kd [1] [µM]	fold decrease in affinity against wild-type CBPKIX [2] [fold]	Kd [3] [µM]	fold decrease in affinity against wild-type p65TA1 [3] [fold]
PGYPNGLLSGDEDFSSIADMDFSALLSQISS (peptide, UniProt Q04206 521-551, looked up) [transactivation domain 1 (TA1) of the p65 subunit of NF-κB, residues 521–551, L523Y]	13 ± 2	≥ 100	15 ± 3	–
PGYPNGLLSGDEDFSSIADMDASALLSQISS (peptide, UniProt Q04206 521-551, looked up) [F542A mutant of p65TA1]	–	–	–	≥ 100
